# The RNAGym collection of RNA variant scans (doi:10.1073/pnas.2313332121)
# Variants at the floor of the assay were thinned out.
# B1: TPR 5TU (parent)
# chain: GGAUCUUCUCGAUCUAACAAAAAAGACAAAUCUGCCACAAAGCUUGAGAGCAUCUUCGGAUGCAGAGGCGGCAGCCUUCGGUGGCGCGAUAGCGCCAACGUUCUCAACUAUGACACGCAAAACGCGUGCUCCGUUGAAUGGAGUUUAUCAUG
# Variants of: B1
# Experiment: polymerase ribozyme fitness, log enrichment relative to wild type (log ratio); higher = more active; in vitro selection for triplet polymerase activity
# In short: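 The heterodimeric triplet polymerase ribozyme's subunits were each mutagenized into PCR-built libraries and transcribed. Every library was selected once, in triplicate, by annealing with a biotinylated primer, the partner subunit and triplets, incubating frozen at −7 °C, gel-excising extended constructs, capturing on streptavidin beads and running RT-PCR. Input and output libraries were Illumina-sequenced, with genotypes kept only at ≥10 input reads and ≥1 read per output. Fitness, from inverse-variance-weighted replicate averages, is the base-2 logarithm of genotype enrichment over wild-type enrichment.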
row,Variant,polymerase ribozyme fitness (log ratio)
1,A21U U44G C131U G136C G141U U151A,≤ -4.2
2,A21U A28C G34U A39G,≤ -4.2
3,A22U A28U U104G,≤ -4.2
4,A20U U78A C95U,≤ -4.2
5,A21G U56A G67C U77G G88A C99A U109G,≤ -4.2
6,A22U A52C C99U,-1.89
7,A20U G62C C63U C95U A122G G143A,-4.12
8,A21C C54U,-0.0517
9,A21C C54A,0.0369
10,A20U C69A,-2.18
11,A21C C27A C43U A89U G92U G126A U145A U151C,≤ -4.2
12,A22G C85A,-1.12
13,A21U G58C C76G C87U C105A A119U,≤ -4.2
14,A21G C57U C93U G136C,-4.04
15,A21U U55A U56A G71U,-1.72
16,A22G G48A G62C G94A C116U,≤ -4.2
17,A20U G34C C96G,≤ -4.2
18,A21C C125A,0.331
19,A21C A30U U33G A60U C85A,≤ -4.2
20,A21U C35A A106U A119U A138C,≤ -4.2
21,A21U A91U,≤ -4.2

row,Variant,polymerase ribozyme fitness (log ratio)
1,A22G U55A U61A G94U,-3.37
2,A21G G94A A97G A137G,-2.22
3,A21C G84U,-1.28
4,A21G A40C,0.803
5,A21C A47C G58C,0.582
6,A20U C35G A49C G94A G100C A119U A120G U134C,≤ -4.2
7,A21C C27U G59C C69A,-3.75
8,A21G C36U A52C A107U U127C,≤ -4.2
9,A21U C87A,-3.82
10,A21C A47C A60G C93A,-1.98
11,A22G C35G U44C U77G C87A C93G U111G,≤ -4.2
12,A22U C43A C57G C93U C96U,≤ -4.2
13,A21C U53A C69U C125U,-3.94
14,A22U C57U,-0.0575
15,A22G G48C G59A G83A,-4.06
16,A22U C54U G88C A106G U146A,≤ -4.2
17,A21C A52C C57A G88A G92A A97U,≤ -4.2
18,A21C A91C U127C,≤ -4.2
19,A20U U61A C75U G81U C99G U148G,≤ -4.2
20,A20U G141C,-1.4
21,A20U G94A G112A,-3.86

row,Variant,polymerase ribozyme fitness (log ratio)
1,A22C G25A C93U C118A,≤ -4.2
2,A21G C75U,0.894
3,A21U C57A A107C U139C A147C,≤ -4.2
4,A21U U101C,0.366
5,A21U U53A A73C C76A G88A C114U U134A,≤ -4.2
6,A22U A52C U55A G67U,≤ -4.2
7,A21U U33C G42A U45G U53A U90A C96U C114G,-3.87
8,A20U C87U G88C U101A U146G,≤ -4.2
9,A22C G71C C79U C95G G143A U144C,≤ -4.2
10,A22G G80A G86A C93A,-4.2
11,A21G G59C C85U U102C C116G U134A,-4.09
12,A20U C43A C69U A138G,≤ -4.2
13,A21C A23G C51G U55A U101A,≤ -4.2
14,A20U G84U A120U,-2.73
15,A21U A60G G65C,-3.98
16,A21U U135C,-1.61
17,A21U A49G G84U U145G,-2.57
18,A21U A26C A52C C54U G62A G68A G83C U139G,≤ -4.2
19,A21U A73G C79G G84U C149G,≤ -4.2
20,A21C C54A C95U C114G G136U,≤ -4.2
21,A21G A52G U53A C54U C87U C95A G136A G140U,≤ -4.2

row,Variant,polymerase ribozyme fitness (log ratio)
1,A21C A23C G80A U82G G86U A137G,≤ -4.2
2,A21U C57A C93G A142C,-3.67
3,A20U C54U C95U C96A,-2.31
4,A21C A24G A28G A29U G71C G83A G124U,≤ -4.2
5,A22U C57A G70C U78A G80A,≤ -4.2
6,A22C C69U C93U,-1.59
7,A22G A73U C87U,-3.05
8,A22C C38U G83C A122G G141U,0.178
9,A22C G81A,-0.137
10,A22C G34A A64G U144G U151A,-4.04
11,A20U U55G C96U U134G U144G,-3.67
12,A22C G84U A91U A107C G136C,≤ -4.2
13,A21U A29C A30U C32A G86A C99U C118U U134A U145C C149G,≤ -4.2
14,A22G A30U G65C G136A,≤ -4.2
15,A21G U31A A41G C51U C87A C118A U139A C149G,≤ -4.2
16,A22C C85G,-2.43
17,A20U C85U,-1.3
18,A21U U45C C85A,-3.36
19,A22C A28G G48C G62A A64C C85U,≤ -4.2
20,A21C C27G G83C A113U G140A,≤ -4.2
21,A21G A49U C57G A150G,≤ -4.2
